This note sets out measurements from PMC3427180, “Zea mays Taxilin Protein Negatively Regulates Opaque-2 Transcriptional Activity by Causing a Change in Its Sub-Cellular Distribution” (PLoS ONE, 2012).

In the assay the target is T1, Full length Zea mays Opaque-2 (ZmO2) fused to the GAL4 DNA binding domain (Zea mays, UniProt P12959 1-453).
T1 sequence (looked up): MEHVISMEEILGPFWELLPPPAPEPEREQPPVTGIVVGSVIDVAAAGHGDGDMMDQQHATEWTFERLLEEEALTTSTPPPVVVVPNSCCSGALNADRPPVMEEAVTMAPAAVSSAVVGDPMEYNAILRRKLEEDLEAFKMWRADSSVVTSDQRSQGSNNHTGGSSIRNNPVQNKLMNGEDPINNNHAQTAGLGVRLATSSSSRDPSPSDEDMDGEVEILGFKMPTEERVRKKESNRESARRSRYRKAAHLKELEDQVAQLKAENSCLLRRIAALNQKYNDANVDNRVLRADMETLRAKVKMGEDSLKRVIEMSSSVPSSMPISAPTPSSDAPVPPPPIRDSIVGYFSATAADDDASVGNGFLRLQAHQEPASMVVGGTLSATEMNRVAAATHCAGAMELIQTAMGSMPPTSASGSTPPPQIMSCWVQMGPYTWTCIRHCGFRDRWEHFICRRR
Nature of the assay: cell-based or functional assay.

B1: Full length ZmTaxilin fused to the GAL4 activation domain (natural protein, Zea mays, UniProt C0P5X2 1-425, looked up)
chain: MEGSPVARLPEANSLPDGFVPDSESSDTDAAPPSSAPIVDDAIDSDSPDATNPGGEETLSDPSLPASTAEDASSAAAAEALDTLCLDVVADPERALGEHGPTTAARGEGSLKENRASEQVGAPSDQKVVKGSGEPKRKVIKHSKLEKDKELFQLAQQYHKVVAERDQAIAVKDRLESLCREFQRQNKMLKEECQRVSTEGQNMRTELSEKFDHAIKGVSAKLEEQRVERISQLEENNTLRSKLKDLADQYNITQQKYAHQLKEKMLELELADLRLQQHQEKAAQEHTQMQLYAEQVSQLMTTEKNLRLQLASDGERFQHFQDALSKSNEVFETYKQEMEKMISVIKNLKKENEFLKGKCENSDIAIVKLIEERELTKKQIEKLKNQREKLESLCRTLQAERKQGPSASIPDAPSSQEVSATSQES
Take B1: the “GUS/luciferase ratio from the z1C (22-kD zein) promoter reporter in onion epidermal cells; YFP-O2 co-expressed with CFP-Taxilin against YFP-O2 alone” value was found to be 47%.
